The supplement of paper PMC7125110
± gives the standard error. For part of these data: This sample holds only a part of the variants without activity.

B1: glmS ribozyme (parent)
chain: AUAAAAGCGCCAGAACUACAGAAAUGUAGUUGACGAGGAGGAGGUUUAUCGAAUUUUCGGCGGAUGCCUCCAAA

Tests used:
Settings in all cases: with glucosamine-6-phosphate
glucosamine-6-phosphate [1] = variants of: B1; experiment: kcat; higher = faster cleavage; RNA array
Procedure, shortened: (§1)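 Sequenced MiSeq chips were the platform: E. coli RNA polymerase transcribed barcoded ribozyme variants on them in situ, and a hybridised Cy3 probe tracked these at 37 °C. After glucosamine-6-phosphate (40 μM to 10 mM) in HEPES/KCl/Mg(OAc)2 buffer was flowed in, tiles were imaged over ~14 h. Signals normalised to baseline and to non-cleaving reference variants were reduced to per-tile medians and fit to one- or two-exponential decays to obtain kobs. kcat and KM were derived through weighted Michaelis–Menten fits across concentrations.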

glucosamine-6-phosphate [2] = variants of: B1; experiment: self-cleavage kobs at 640 uM GlcN6P; higher = faster cleavage; RNA array
Procedure, shortened: as §1

glucosamine-6-phosphate [3] = variants of: B1; experiment: self-cleavage kobs at 2500 uM GlcN6P; higher = faster cleavage; RNA array
Procedure, shortened: as §1

glucosamine-6-phosphate [4] = variants of: B1; experiment: KM; higher = weaker cofactor use; RNA array
Procedure, shortened: as §1

glucosamine-6-phosphate [5] = variants of: B1; experiment: self-cleavage kobs at 40 uM GlcN6P; higher = faster cleavage; RNA array
Procedure, shortened: as §1

glucosamine-6-phosphate [6] = variants of: B1; experiment: self-cleavage kobs at 160 uM GlcN6P; higher = faster cleavage; RNA array
Procedure, shortened: as §1

glucosamine-6-phosphate [7] = variants of: B1; experiment: self-cleavage kobs at 10000 uM GlcN6P; higher = faster cleavage; RNA array
Procedure, shortened: as §1

Row | Variant | kcat (glucosamine-6-phosphate [1]) [s⁻¹] | self-cleavage kobs at 640 uM GlcN6P (glucosamine-6-phosphate [2]) [s⁻¹] | self-cleavage kobs at 2500 uM GlcN6P (glucosamine-6-phosphate [3]) [s⁻¹] | KM (glucosamine-6-phosphate [4]) [µM] | self-cleavage kobs at 40 uM GlcN6P (glucosamine-6-phosphate [5]) [s⁻¹] | self-cleavage kobs at 160 uM GlcN6P (glucosamine-6-phosphate [6]) [s⁻¹] | self-cleavage kobs at 10000 uM GlcN6P (glucosamine-6-phosphate [7]) [s⁻¹]
1 | C16A C70A | 3.47e-05 ± 1.4e-05 | 3.14e-05 ± 1.6e-05 | 6.59e-05 ± 2.4e-05 |  |  |  | 
2 | U45A U46G | 0.0594 ± 0.012 | 0.0264 ± 0.006 | 0.0366 ± 0.012 | 939 ± 230 | 0.00256 ± 0.00026 | 0.00762 ± 0.0012 | 0.0669 ± 0.021
3 | A36U C71U | < 1e-05 | < 1e-05 |  |  |  |  | 
4 | A14G A53U | 0.0349 ± 0.012 | 0.011 ± 0.0013 | 0.0342 ± 0.015 | 1060 ± 450 | 0.00142 ± 0.00015 | 0.00482 ± 0.00076 | 0.0446 ± 0.0086
5 | A12G U57C | 1.17e-05 ± 1.7e-06 |  |  |  | < 1e-05 |  | 
6 | G9U G59A | < 1e-05 |  | < 1e-05 |  | < 1e-05 |  | 
7 | C11G C67G C70G | 5.32e-05 ± 2.1e-05 | 8.18e-05 ± 2.2e-05 |  |  |  |  | 
8 | C16G U54A | 0.00588 ± 0.0013 | 0.00144 ± 0.00019 | 0.0024 ± 0.00062 | 1860 ± 560 | 0.000135 ± 1.8e-05 | 0.000487 ± 0.00011 | 0.00601 ± 0.00089
9 | A52G A53U | 0.000266 ± 2.2e-05 | 6.4e-05 ± 1.5e-05 | 0.000176 ± 3.4e-05 | 1900 ± 430 |  |  | 0.000219 ± 2.3e-05
10 | C50G G62A | 0.000121 ± 5.5e-05 |  | 0.000168 ± 3.3e-05 |  | 3.58e-05 ± 1.1e-05 | 0.000128 ± 2.4e-05 | 
11 | U55C C58G | 0.000215 ± 1.3e-05 |  | 3.85e-05 ± 1.1e-05 |  |  |  | 9.91e-05 ± 1.2e-05
12 | C68U U69G C70U | 1.34e-05 ± 6e-06 |  |  |  |  |  | 
13 | G44C A53G | 0.000232 ± 7.9e-06 | 3.96e-05 ± 1.4e-05 | 0.000105 ± 1.9e-05 | 3060 ± 220 |  |  | 0.000177 ± 3e-05
14 | G41A U46G | 0.00092 ± 0.00015 | 0.000206 ± 4.4e-05 | 0.000537 ± 0.00011 | 2030 ± 530 |  | 6.59e-05 ± 1.8e-05 | 0.000747 ± 0.00018
15 | A12G U65A | 0.0002 ± 5.7e-06 | 2.72e-05 ± 6.7e-06 | 7.94e-05 ± 8.3e-06 | 3880 ± 230 |  |  | 0.000143 ± 1.2e-05
16 | C10U A14C U30A G35A G38A | < 1e-05 |  |  |  |  |  | 
17 | U46G U65G | 0.00226 ± 0.00027 | 0.000467 ± 7.5e-05 | 0.00124 ± 0.00017 | 2130 ± 380 | 4.1e-05 ± 8.8e-06 | 0.000189 ± 3.4e-05 | 0.0019 ± 0.0003
18 | U65C G66A | 0.000598 ± 0.00017 | 0.000112 ± 3.9e-05 | 0.000323 ± 0.00014 |  |  |  | 0.000416 ± 7.9e-05
19 | U47G A53G U57C C68U | 9.73e-05 ± 3.2e-05 | 3.09e-05 ± 1.2e-05 | 3.84e-05 ± 1.3e-05 |  |  |  | 8.44e-05 ± 1.8e-05
20 | U31G G37U | < 1e-05 |  |  |  |  |  | 

Row | Variant | kcat (glucosamine-6-phosphate [1]) [s⁻¹] | self-cleavage kobs at 640 uM GlcN6P (glucosamine-6-phosphate [2]) [s⁻¹] | self-cleavage kobs at 2500 uM GlcN6P (glucosamine-6-phosphate [3]) [s⁻¹] | KM (glucosamine-6-phosphate [4]) [µM] | self-cleavage kobs at 40 uM GlcN6P (glucosamine-6-phosphate [5]) [s⁻¹] | self-cleavage kobs at 160 uM GlcN6P (glucosamine-6-phosphate [6]) [s⁻¹] | self-cleavage kobs at 10000 uM GlcN6P (glucosamine-6-phosphate [7]) [s⁻¹]
21 | A14G U31A U57A C71G | 2.93e-05 ± 8.2e-06 |  |  |  |  |  | 
22 | A39G U65G | 0.0131 ± 0.0026 | 0.00161 ± 0.00039 | 0.00553 ± 0.0018 | 3200 ± 790 | 0.000177 ± 2.2e-05 | 0.00068 ± 0.00014 | 0.0103 ± 0.0015
23 | C11A U30A | 0.000318 ± 4.7e-05 | 8.58e-05 ± 1.7e-05 | 0.000146 ± 3.4e-05 | 1940 ± 600 |  |  | 0.000288 ± 4.4e-05
24 | C16A G66U | 0.000122 ± 3.2e-05 |  | 2.61e-05 ± 1.2e-05 | 8450 ± 4000 |  |  | 6.63e-05 ± 1.5e-05
25 | G29U G37C | 1.83e-05 ± 2.2e-06 |  |  |  |  |  | 
26 | U49G A53G A64G C67A | 0.000753 ± 0.0002 | 0.00016 ± 2.3e-05 | 0.000369 ± 7.9e-05 | 2220 ± 890 | 3.28e-05 ± 1.1e-05 | 5.27e-05 ± 1.4e-05 | 0.000669 ± 0.00013
27 | U31G G32C | 0.000616 ± 8.5e-05 | 6.65e-05 ± 1.1e-05 | 0.000186 ± 2.9e-05 | 5520 ± 1100 |  |  | 0.000405 ± 8.2e-05
28 | A12U G13A C50G C67U | 0.000171 ± 2.5e-05 | 0.000169 ± 4.2e-05 | 0.000208 ± 3.6e-05 |  | 0.000107 ± 2.3e-05 | 0.000201 ± 5.7e-05 | 0.000124 ± 3.4e-05
29 | U45A C58U | 0.000219 ± 4.8e-05 |  | 9.07e-05 ± 1.6e-05 | 4210 ± 1900 | < 1e-05 |  | 0.000149 ± 2.4e-05
30 | A12G A52G | 3.09e-05 ± 1e-05 |  | 5.02e-05 ± 1.5e-05 |  |  |  | 2.49e-05 ± 8.8e-06
31 | A12C C50A U56A | < 1e-05 | < 1e-05 |  |  |  |  | 
32 | C10U A53U | 1.55e-05 ± 3.9e-06 |  |  |  |  |  | 
33 | C10U U31A | 2.74e-05 ± 1e-06 |  |  | 5120 ± 380 |  |  | 
34 | C16U A42G | 0.0195 ± 0.0085 | 0.00699 ± 0.0019 | 0.00906 ± 0.0027 |  | 0.000669 ± 0.0001 | 0.00221 ± 0.00057 | 0.0355 ± 0.0076
35 | A42G G44C U56A C70U | < 1e-05 |  | < 1e-05 |  |  | < 1e-05 | 
36 | G29C A33U | 2.55e-05 ± 6.2e-07 |  |  | 979 ± 140 |  |  | 2.33e-05 ± 1.2e-05
37 | U57A C68U | 0.00017 ± 1.9e-05 | 3.78e-05 ± 8.1e-06 | 7.94e-05 ± 1e-05 | 2500 ± 560 |  |  | 0.000143 ± 2.2e-05
38 | A6C U69A | 2.1e-05 ± 3.8e-06 |  |  |  |  |  | 
39 | G37A C58A | 1.97e-05 ± 3.4e-06 |  |  |  |  |  | 
